Measured values: a protein production outcome set (Wang et al. 2014)

experiment: label from the status in PepcDB records

Sequence	protein production
MKREAEGGFQNRYLSNCPGSSRLRVWVPIVEASPGRRPYPFRCQPCNFRLGGRAVGGLAAAQPGGRPRWRRAARRAARAPAPPWLPLPSSPRSNPLTRLLPWFKSIDLNKPIDKRIYKGTQPTCHDFNQFTAATETISLLVGFSAGQVQYLDLIKKDTSKLFNEERLIDKTKVTYLKWLPESESLFLASHASGHLYLYNVSHPCASTPPQYSLLKQGEGFAVYAAKSKAPRNPLAKWAVGEGPLNEFAFSPDGRHLACVSQDGCLRVFHFDSMLLRGLMKSYFGGLLCVCWSPDGRYVVTGGEDDLVTVWSFTEGRVVARGHGHKSWVNAVAFDPYTTRAEETASASGDGDPSGEEEEPEATSSDTGAPVSPLPKAGSVTYRFGSAGQDTQFCLWDLTEDVLSPHPPLARTRTLPGTPGATPPASGGSRAGETGAGPLPRSLSRSNSLPHPAGGGKAGGPSVSMEPGVPFSIGRFATLTLQERRDRGAEKEHKRYHSLGNISRGGSGGNSSNDKLNGPAPRSRLDPAKVLGTALCPRIHEVPLLEPLVCKKIAQERLTVLLFLEDCIITACQEGLVCTWARPGKAFTDEETETQAGEASWPRSPSKSVVEGISSQPGSSPSGTVV	failed
MKRFLSIAMALCIGLTMSLDANAKRFGGGKSVGAAPTHQTRQAAPTAPGAPAAAATAGAAGAAGAAAKAGGASRWLGPLAGIAAGGLLASMFMGGGFQGMQIFDILIMAVIAFVIFRFIAARRRKQQEQYAPAGHAPMQREAFEPQQPAGGSIFGGSPAPAARPVINAPAWFNEERFIEAARSHFQSLQQHWDANEMDKIAEFVTPQMLQFLKQERADLGDGFQSTYIDNLQVQLEGVDDRADKTIATLTFSGVSKTSRFDQGEVFSESWNMERAQGDNQPWLVAGIRQNG	failed
MKRIIILSPFRGLFRSLLYFLLGLIMALISAGYFSQLFSIVGINRDIAIIISITISFLSLFSSPFNLVLTEVKKEAIAIEEDVVFFFGFPIFIPRISRQNMNTLIAVNLGGALIPLGVSLFLMYELQAYIVYFIINIIVVIIVSKLFSRVIRGVGVIMHPIIPSIFSVISSYVLFYKLHILIPLSAYIGSVLGTLIGADLLNLRRIINEARPQVISIGGMGTFDGIFVSGIISVFISELLVII	failed
MKRKHLSGKSIGIVFGTFAPMHVGHVDLITKEKRANDNVLVIVSGSNTQKDRGTRTGLSLNRRFRNVREIFYDDELIVVDKLDEADMPPYPEGWVPWVNRVKDLITKNTDGPEKITFYVGESEYVIELNRYYPQAQVELIECSVINISATEIRDNPIENWRFITKPFRRHF	failed
MKRLAKTTLMTAMVAMVSFSIYAQTGRDIAQRVKDRPDGDTRRSELTMKLINKRGAVRERKLISYSIDMGKDKKDKKTIMFFLYPGDVKGTGFLTWDYDQIGKDDDKWLYLPAMKKTRRISGASAKKDYFMGSDFTYDDMGSRNVDEDTHKLLGEETFDGHKCWKLESTSKDQRDVFSKKIAWIRQDCLIPVRVEYYDRMNRLHRLLELSDIAQVDGFWMAQKMNMSNVQTGHRTVLEIKKPEFNRPIDESKFTVTSLEKGSL	not failed
MKRLALALKQRKVASWKLEEVKELTELIKNSNTILIGNLEGFPADKLHEIRKKLRGKATIKVTKNTLFKIAAKNAGIDIEKLEQYLTGPNVFIFTKDNPFITNMFFENYKLRRYAMPGDKAEEEVVIPAGDTGMPAGPILSVFGKLKVQTKVQDGKVHVVKDTVVAKPGDVIPAEALPILQKLGIMPVYVKLKIKVAYHEGLVIPAESLKLDLEGYRSNITEAYRNAFTLAVEIAYPTPDVLKFTISKVFKNAIALASEIGYITPESAQAVISKAVAKAYALATAIGGKVDLGVQLPTVQQSQSQQPAAEEKKEEKKEEEKKGPSEEEIASGLASLFG	failed
MKRLEVSNQAKLPTQFGEFYIQCFREKGSNGSKDHLVVFTPNFSQNPLVRLHSECLTGDALGSQKCDCGGALQMALERISKEGGLVIYLRQEGRGIGLFNKVNAYALQDKGYDTIQANEMIGFKDDERDYSVAGEILEYYRIKKMRLLTNNPKKIAALEKYAEVTRESLIVCANEHNQGYLEVKKLKMGHLL	failed
MKRLLFTVISLLFSVSVLAAESSADRIDLTSSTVGYAAIVIFILAYILVMGEEKLHMRKSKPVLVAAGVIWILIGFVYTGDNAVLAEEAFRENLLKFAELMLFLLVAMTYINALEERRLFDALSAWLMKKGFTYRKLFWITGFLAFFISPIADNLTTALLMSAVVMKVAEGNKKFVALCCSSIVIAVNAAGAFSPFGDITTLMVWQSGKVEFTEFLQLFVPALVNYLIPAVIMSFFIENKSPTTLHTEVELKRGALRITFLFLLTVATAVACHIWLHLPPVLGMMMGLGYLQFFGYFLRMTLPGSLARKRAMAAREGDQKRLQQLGGVVPFDVFSRVSRAEWDTLLFFYGIVLCVGGLGFMGYLGLLSESLYGGLDPTIANSILGVVSALVDNIPVMFAVLSMDPEMSTGHWLLITLACCTGGSLLSIGSASGVALMGQARGYYTFMSHLKWTPVIAIGYAASILLHLWLNQATFLS	failed
MKRLMFIGPSQCGKTSLTQSLRGEALHYKKTQAIEWSPMAIDTPGEYLENRCLYSALLTSACEADVIALVLNADAQWSPFSPGFTVPMNRPTIGLVTKADLADPQRISLVAQWLTQAGARQIFITSALNNSGLDAVLDFLNSKEPLCLTKLEHHHHHH	failed
MKRSDNVSWSQLKGGIFILVALAFFAGGVLLMGDKTKFFVPKGRLSVIMADVAGLKAGAPVWLAGVDVGVVTQIHFERPEATNEVEIVLEVDREALKKIGADSVVTVKTRGLMGEKYVDITPTREIVAKPVTRLQGTPMPKLDDVVQKAGRAFDRVDAIVAKTERGEGTLGRFASDPKLYDSLVRLTTELNAVAVSVNRGEGTLGMLNKSREPYEKLMSILNRADNTLTDIQSSEGTMSKLIHDRELYDKLVAVASKAGTAADEVRELNRRLLSKDGTLGKLVADREFYDRGLTLINRADTSLKSLEEVTARLQRGEGTAGKLLSDRELYDRLNRTVDDLDLLVKDIKENPKRYVKFSVFLEHHHHHH	failed
MKRWIAIILIALMPAAQAGKAAKVTLVVDDVPVVQVLQALAEQERQNLVVSPDVSGTLSLHLTDVPWKQALQTVVNSAGLVLRQEGNILHVHSQAWQKEHSARQDAERLRLQANLPLENRSISLQYVDTGELAKAGEKLLSAKGTIMVDKRTNRLLLRDNRAALAELEKWVSQMDLPVAQVELAAHIVTINEKSLRELGVKWTLADATQAGAVGDVTTLSSDLSVAAATSRVGFNIGRINGRLLDLELSALEQKQQLDIIASPRLLASHLQPASIKQGSEIPYQVSSGESGATSVEFKEAVLGMEVTPTVLQKGRIRLKLHISQNVPGQVLQQADGEVLAIDKQEIETQVEVKSGETLALGGIFSRKNKSGSDSVPLLGDIPWLGQLFRHDGKEDERRELVVFITPRLVATE	failed
MKRWQMEWLLVSVALVWGANYTIGKYGVAFMSSIQFNSLRFLVASPVLLLITFLMERSLRIERKDWLRLVAVGIVGTTMYQTMFMLSVKYTSATNASLLIAMSPIFTGILAVLHKQERFSMKVQIGSIVAFIGAAFVLLTGHTGGATYEYAWLGNIIGLVAAIAWGWYPILAQPLITKYSAMRVTSWSTLIGIVPLVIYCLFNVNTLTWPVDTPSWGSLAYSIVFATIFGLAMWYVGISQIGSTKVMVYMYLVPLFAVIFAAVIIGEQINMMQLVGGLIIFIGLYVVKKGGMKKPALNLKKVS	failed
MKSACSIITASIVLYKSKPDIIRDVITSFFSDTVTKKKLILIDNSPTDSLRVLQEERPEDIQYFFNNRNIGFGSAHNIGIREAARFNPSYHLILNPDVQFGPEVVPTLASYMDENPDIGLLMPQVYYPNGELQHLCKLFPRPWDVMLRRFVPYRSYRERNNERFELRNWSYDTIQDIPSLSGCFMFARMDILREVGGFDERFFMYAEDLDLCRRIGQVSRTVFFPKVSIMHTYAKGSYHDAKLLRHHIVSLIRYFNKWGWLFDAERRRVNRACLAVLRNQTTVKKD	failed
MKSAPDWIAHPDTPYLLIDEAKLKSNINYLKQRVESLGSHLRPHLKTLRTLEAAGYLLDSKSAPATVSTLAEAEAYAKAGYTDLLYAVGIAPAKLKRVAALRQQGINLHILLDNITQAQAVVDYAAEFGQDFSVFIEIDSDDHRGGIKPSDSKLLTIAKTLGEHFTGLMTHAGGSYACNTEQGLKNFAKQECDAVRIARNNLETAGIHCAITSVGSTPTAHFGEDFSDISEVRAGVYTTFDLVMKNIGVCDFSHIAMSVVTTVIGHNKEKNWLLTDSGWMALSRDSGTAGQNRDFGYGQVCKIDGSVLDGLCVNSTSQEHGVIELSDAYQLEDFPVGHQLRIMPNHACATAAMHPVYHVLMSDGSHNTWQRITGW	not failed
MKSEFYQGKIKQYDATKGFGFIGGLEQDVFFHISDFPLEEGEPKRNERVKFMVVENNGKFKAVKIQRVVDQSAKAKKSRAVENNTSITSALLSNFKK	failed
MKSFFSIFGDPSVTSVAIGKFDGMHLAHQRLFSYLDEGGAILTVDAQRGNLTPGEYKREFTPFPLYSIPLGKIKHLSGERFIYMLKKAFPNLTKVVVGYDFRFGKNRAFGVEELRGYFAGEVVVVPEVFHRGHSVHSEAIRELIAQGEMNLAGELLGRD	failed
MKSFVATVLVALLFIVALVFGARNEQVVTISYFVAQGEYRLPVVLAVVFFTGFMLSWLVASYYIVRLKLALAATRKKLTLQTAKKPQGVDA	failed
MKSGVIPSSAVGQKINEWYRYIRTFSVPDAEVLKAEIQQELKHMQHDSNLLLYYSLMEFRHQLMLDYLEPLEKLNIEDQPSLSELSRNIDSNQADLKGLLDYYVNFFRGMYEFDKREFISAITYYKQAEKKLSFVADHIERAEFYFKIAEAYYYMKQTYFSLINIKNAYEIYVEQETYNVRIIQCHFVFGVNLMDERNFEQAARHFKLALNMAQAEQKAQLVGRAYYNLGLCYYNQDLLDPAIDYFEKAVSTFESSRIVNSLPQAYFLITLIYYKQGKHDKASEYHKRGYEYAKETDDADYAVKFEFLQSLYLDQPNEEGIERCFQYLKNKNMYADIEDLALEVAKYYYEQKWFKLSASYFLQVEEARKQIQRSEGLYEIEI	failed
MKSIEKDKYQDIRDAVRSLCSEFDDKYHRKIDEAKAYPEEFVNKLTKAGWLAALIPEEFGGSGLGLTEASIIMEEINRSGGNSGACHGQMYNMNTLLRHGSDKQKEFWLPRIATGEWRLQSMGVTEPTAGTDTTRIKTTAVKREDRYVINGQKVWISRVQHSDWMILLVRTTPLANVKRKSEGMSIFMVDIKEAMKNGMTVRPIPNMVNHETNELFFDNLEIPEENLIGEEGMGFHYILDGLNAERTLIAAECIGDGYWFMDRVTRYTCEREVFGRPIGQNQGVQFPIAEAFIAVEAANLMRFKACELFDQHLDCGAQANMAKYLAAKASWEAANACLQFHGGYGFACEYDIERKFRETRLYQVAPISTNLILSYIAEHVLEMPRSF	failed
MKSILEQLSSMTVVVADTGDLDSIKKFQPRDATTNPSLILAAAKNPDYVKLIDKAIESSENTLPNGFSEIELIKETVDQVSVFFGKEILKIISGRVSTEVDARLSFDTEATVKKARKLINLYKNFGIEKERILIKIAATWEGIKAAEILEKEGIKCNLTLLFNFCQAVTCANANITLISPFVGRILDWHKAKTGKTSFIGAEDPGVISVTQIYKYFKEKGFKTEVMGASFRNLDEIKELAGCDLLTIAPKFLEELKREKGVLIRKLDASTKINNSIDYKFEEKDFRLSMLEDQMASEKLSEGITGFSKAIEELEELLIERLSEMKNHKLISAN	not failed
MKSKFFAQNRERLVNTLPDESITILFAGQAPHMSADAHYKFVPNRNFYYVTGIDEPNVIFMLKKFGNSVEETLFIEKSDPVMEKWVGKTVSNEEAEKISGIKKVIYLDSFEKTMSNIFFTENVKHLYLDLECREWKGTETKTLAFAKHVREQYPHVTIGNVYPNICELRVFKTDEEIEIIKEAIAVTKDGIYNVLKHAKADMMEYELEAQFDFTLKSSGIKHHAFNTILASGKNATVLHYEDNDAQIQNGDLVLLDLGAQKDYYNADISYTFPANGTFSSRQKQIYNIVLNALKETTEIIKPGLKFAALNEHAKKVLAEGCKAVGLIQEDEELSKYYYHGVSHFLGLDTHDVGTYKDRVLEEGMVITIEPGLYIEEESIGIRIEDDILVTKDGHENLSKDIIREVEEIEEFMRENNVNVKQDEVVTK	not failed
